T1: Myo5 SH3 (MYO5_YEAST), Q04439
T1 chain: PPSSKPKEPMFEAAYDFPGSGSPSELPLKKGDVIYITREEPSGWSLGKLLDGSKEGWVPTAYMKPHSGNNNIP


Target: T1, Myo5 SH3 (MYO5_YEAST), Q04439
Assay: SPOT array

Row | Binder | normalised SPOT signal, Boehringer light units (BLU); mean over the file's lines of this peptide
1 | IPLPHQPPPLPIYS [YMR182C 149-162] | 53600
2 | ILIFLWIPDDPSKA [YJR152W 263-276] | 1370
3 | KLVKFKLPFLPISD [YGR150C 548-561] | 974
4 | KFFKHLYPAIPILD [YLR256W 487-500] | 217
5 | IEITHSEPAIPYRE [YNL163C 742-755] | 114
6 | IEPDFIEPDAPLAA [YGL198W 10-23] | 61.4
7 | KPKVLFHPHWPLYI [YJL105W 401-414] | 196
8 | KFRQMFKPLAPNTR [YLR072W 165-178] | 1220
9 | KFTDMQVPKGPVSP [YOR264W 96-109] | 197
10 | KPLKFLRPTYPDLS [YHR027C 87-100] | 149
11 | ILHQLGAPSIPENL [YBL004W 2280-2293] | 174
12 | KELNLTGPKVPEDI [YHR027C 344-357] | 102
13 | ILQILFEPMPPFNS [YBL037W 656-669] | 200
14 | IATMYPIPAYPDLL [YJL127C 53-66] | 96.9
15 | KLPDLKLPPSPVPS [YML083C 113-126] | 231
16 | ILVAYGLPVSPDEK [YDR127W 327-340] | 167
17 | IPTSHAPPLPPTAP [YLR337C 317-330] | 43600

Row | Binder | normalised SPOT signal, Boehringer light units (BLU); mean over the file's lines of this peptide
18 | IEVPMEYPFKPPKM [YDR177W 56-69] | 384
19 | ILQELSLPSRPVMP [YGR002C 427-440] | 51.9
20 | KESKFGTPEKPLSD [YBL052C 444-457] | 250
21 | IPVGYVTPKFPSLY [YPR153W 14-27] | 21.6
22 | KLAPLNSPSLPTTN [YOL107W 236-249] | 212
23 | KLDPLGEPFDPNKH [YOR232W 171-184] | 276
24 | KAIVWRLPKMPKIK [YFL040W 5-18] | 515
25 | KFLIHNEPIDPNDR [YIL009W 198-211] | 122
26 | KLNSLQIPHLPPSV [YHR105W 144-157] | 350
27 | KELPFTGPSIPFEN [YPL216W 339-352] | 339
28 | KEQNWKHPLLPLLK [YDL202W 121-134] | 321
29 | ILPVLNIPLPPQEK [YER132C 923-936] | 21.6
30 | KLWDLSKPSKPLKE [YAR003W 97-110] | 233
31 | KAGSFGAPSSPTSG [YPL179W 199-212] | 124
32 | IERVWNGPVEPSDE [YIL067C 73-86] | 180
33 | KLALHQYPNFPSEG [YML022W 11-24] | 130
34 | KEFRFIFPLQPLFI [YGL142C 392-405] | 750

Now from value to binder:

Row | normalised SPOT signal, Boehringer light units (BLU); mean over the file's lines of this peptide | Binder
35 | 262 | KFTDMLDPEKPNVI [YBR033W 385-398]
36 | 81.4 | ILSAYNSPKVPADI [YGR175C 270-283]
37 | 240 | IFQSLLHPELPIII [YPR169W 50-63]
38 | 46.7 | KFVIHNEPIDPSDK [YMR246W 198-211]
39 | 675 | KLKSLNLPQLPPPK [YDR266C 567-580]
40 | 172 | ILTLLKMPEVPNSV [YDR395W 823-836]
41 | 71.1 | KLEDLNEPLSPWIS [YPL159C 152-165]
42 | 123 | KELLLIPPGFPTKN [YCL010C 181-194]
43 | 84.8 | IEEGHLDPEAPDKL [YOR301W 105-118]
44 | 10500 | KASSMPAPPPPPPP [YLR337C 391-404]
45 | 227 | KLGRFTNPQQPRED [YPL075W 704-717]
46 | 432 | KFPLMDKPSIPTLR [YNR011C 604-617]
47 | 503 | IFFKLIHPFLPILH [YIR023W 322-335]
48 | 183 | KPAVLHYPPIPASA [YAL031C 680-693]
49 | 166 | ILVPHLDPIDPWEA [YJR111C 130-143]
50 | 305 | KLPKLNVPLNPKGK [YAR009C 933-946]
51 | 79.3 | KELIYKQPSGPGLV [YER045C 32-45]
52 | 258 | KLFVLLPPIDPKDG [YNL132W 563-576]
53 | 131 | KAPYLVQPNVPEKH [YHL002W 140-153]
54 | 132 | KEVDLTRPSAPSEP [YLR181C 258-271]
55 | 134 | IEFDLSKPFTPFQQ [YGL173C 578-591]
56 | 54100 | KLPQLPPPPPPPPP [YIL159W 764-777]
57 | 1360 | KPKMLPIPSKPTLF [YPL243W 531-544]
58 | 125 | KAVHLYFPILPHSG [YCR034W 255-268]
